Results: patent US20190315886A1 (JIANGSU HENGRUI MEDICINE, published 2019)

Assays:
[1] = target: T1, human thrombin with His tag (human, UniProt P00734 328-622); test: binding ELISA, biotinylated His-tagged human thrombin on streptavidin plate
Description: The binding ability of anti-thrombin antibody was detected by ELISA assay with the antibodies and the human thrombin with His tag. Thrombin protein with His tag labeled with the biotin-labeling kit (Dongren Chemicals, Cat No. LK03) was immobilized into a 96-well microtiter plate by binding to streptavidin coated on the microtiter plate, the strength of the signal after the addition of the antibody was used to determine the binding activity of the antibody to thrombin. The specific experimental method is as follows.
Streptavidin (Sigma, Cat No. S4762-5MG) was diluted to a concentration of 5 μg/ml with PBS buffer, pH 7.4 (Sigma, Cat No. P4417-100TAB) and added to a 96-well plate at a volume of 50 μl/well, and then, the plate was incubated in the incubator at 37° C. for 2 hours. After discarding the liquid, the plates were blocked with 200 μl/well of blocking solution containing 5% skim milk (Guangming skim milk) in PBS, and incubated in the incubator at 37° C. for 2.5 hours or overnight at 4° C. (16-18 hours). After blocking, the blocking solution was discarded and the plate was washed 5 times with PB ST buffer (PBS containing 0.05% tweeen-20, pH7.4). Human thrombin protein with His tag labeled with the biotin-labeling (SEQ ID NO: 2, as shown by the double underline) was diluted with sample dilution (PBS containing 1% BSA, PH7.4) to 50 μg/ml and was added to each well, 50 μl/well. Then the plate was incubated in the incubator at 37° C. for 2 h or overnight. After incubation, the blocking solution in the plate was discarded, and the plate was washed with PBST 6 times, and then 50 μl/well of various concentrations of the test antibodies diluted with sample dilution was added to each well, and the plate was incubated at 37° C. for 2 h. The plates were washed 5 times with PBST after incubation, and 100 μl/well of goat anti-human secondary antibody (Jackson Immuno Research, Cat No. 109-035-003) labeled with HRP was added to each well, diluted in sample dilution, and the plate was incubated at 37° C. for 1 h. After washing the plates 5 times with PBST, 50 μl/well of TMB chromogenic substrate (KPL, Cat No. 52-00-03) was added to each well, and incubated at room temperature for 10-15 min. The reaction was stopped by the addition of 50 μl/well 1M H₂SO₄ to each well.

[2] = target: T1, human thrombin with His tag; test: Biacore
[3] = target: T2, human prothrombin with His tag (human, UniProt P00734 44-622); test: Biacore
T2 construct: also called h-prothrombin-his

[4] = target: T1, human thrombin with His tag; test: Biacore; reference h1601-008
[5] = target: T2, human prothrombin with His tag; test: Biacore; reference h1601-008
[6] = target: T1, human thrombin with His tag; test: Biacore; ratio of KD on pro-thrombin to KD on thrombin
[7] = target: T1, human thrombin with His tag; test: BIAcore, antibody captured by anti-human antibody
[8] = target: T2, human prothrombin with His tag; test: BIAcore, antibody captured by anti-human antibody
[9] = target: T1, human thrombin with His tag; test: biacore; selectivity thrombin over pro-thrombin, reference h1601-008
[10] = target: T1, human thrombin with His tag; test: BIAcore
[11] = target: T2, human prothrombin with His tag; test: BIAcore
[12] = target: T1, human thrombin with His tag; test: binding ELISA
[13] = target: T3, mouse thrombin with His tag (mouse, UniProt P19221 325-618, limits assumed); test: binding ELISA
T3 construct: also called m-thrombin-His; murine thrombin

[14] = target: T2, human prothrombin with His tag; test: binding ELISA

Row | EC50 [1] [nM] | Kd [2] [nM] | Kd [3] [nM] | Fold of Affinity relative to h1601-008 [4] [fold] | Fold of Affinity relative to h1601-008 [5] [fold] | Selective activity [6] | Binder | also measured
1 | 5.8 |  |  |  |  |  | humanized antibody h1601-005 (antibody, human IgG4 S228P, kappa, V domains shown) VH: EVQLVESGGGLVQPGGSLRLSCAASGFTFSDYYMAWVRQAPGKGLEWVSNINSDGSSTYYLDSLKSRFTISRDNSKNTLYLQMNSLKAEDTAVYYCARDHYHGNSYVFDYWGQGTTVTVSS VL: DIQMTQSPSSLSASVGDRVTITCKASEDIYNRLAWYQQKPGKAPKLLISGATSLETGVPSRFSGSGSGKDFTLTISSLQPEDFATYYCQQYWSTPWTFGGGTKVEIKR | 
2 |  | 0.0899 | 1.23 | 86.5 | 62.4 | 13.7 | aTM-2 (antibody, V domains shown) VH: EVQLVESGGGLVQPGGSLRLSCAASGFTFSDYYMAWVRQAPGKGLEWVSNINSDGSSTYYLDSLKSRFTISRDNSKNTLYLQMNSLKAEDTAVYYCARDHYLGNSYVFDSWGQGTTVTVSS VL: DIQMTQSPSSLSASVGDRVTITCKASEDIYNRLAWYQQKPGKAPRLIISGATSLETGVPSRFSGSGSGKDYTLTISSLQPEDFATYYCQQYWSTPWTFGGGTKVEIK | 
3 | 1.54 | 7.78 | 76.8 | 1 | 1 | 9.9 | humanized antibody h1601-008 (antibody, human IgG4 S228P, kappa, V domains shown) VH: EVQLVESGGGLVQPGGSLRLSCAASGFTFSDYYMAWVRQAPGKGLEWVSNINSDGSSTYYLDSLKSRFTISRDNSKNTLYLQMNSLKAEDTAVYYCARDHYHGNSYVFDYWGQGTTVTVSS VL: DIQMTQSPSSLSASVGDRVTITCKASEDIYNRLAWYQQKPGKAPRLIISGATSLETGVPSRFSGSGSGKDYTLTISSLQPEDFATYYCQQYWSTPWTFGGGTKVEIKR | Kd [7]: 8.97 nM; Kd [8]: 94.3 nM
4 | 1.49 |  |  |  |  |  | humanized antibody h1601-009 (antibody, human IgG4 S228P, kappa, V domains shown) VH: EVKLVESGGGLVQPGGSLRLSCAASGFTFSDYYMAWVRQAPGKGLEWVANINSDGSSTYYLDSLKSRFTISRDNSKNTLYLQMNSLKAEDTAVYYCARDHYHGNSYVFDYWGQGTTVTVSS VL: DIQMTQSPSSLSASVGDRVTITCKASEDIYNRLAWYQQKPGKAPRLIISGATSLETGVPSRFSGSGSGKDYTLTISSLQPEDFATYYCQQYWSTPWTFGGGTKVEIKR | Kd [7]: 8.17 nM
5 | 4.45 |  |  |  |  |  | humanized antibody h1601-006 (antibody, human IgG4 S228P, kappa, V domains shown) VH: EVKLVESGGGLVQPGGSLRLSCAASGFTFSDYYMAWVRQAPGKGLEWVANINSDGSSTYYLDSLKSRFTISRDNSKNTLYLQMNSLKAEDTAVYYCARDHYHGNSYVFDYWGQGTTVTVSS VL: DIQMTQSPSSLSASVGDRVTITCKASEDIYNRLAWYQQKPGKAPKLLISGATSLETGVPSRFSGSGSGKDFTLTISSLQPEDFATYYCQQYWSTPWTFGGGTKVEIKR | 
6 |  | 0.191 | 3.48 | 40.7 | 22.1 | 18.2 | aTM-1 (antibody, V domains shown) VH: EVQLVESGGGLVQPGGSLRLSCAASGFTFSDYYMAWVRQAPGKGLEWVSNINSDGSSTYYLDSLKSRFTISRDNSKNTLYLQMNSLKAEDTAVYYCARDHYIGASYVFDYWGQGTTVTVSS VL: DIQMTQSPSSLSASVGDRVTITCKASEDIYNRLAWYQQKPGKAPRLIISGATSLETGVPSRFSGSGSGKDYTLTISSLQPEDFATYYCQQYWSTPWTFGGGTKVEIK | fold increase of selectivity (against h1601-008) [9]: 1.8 times
7 |  | 0.144 | 2.62 | 54 | 29.3 | 18.2 | aTM-4 (antibody, V domains shown) VH: EVQLVESGGGLVQPGGSLRLSCAASGFTFSDYYMAWVRQAPGKGLEWVSNINSDGSSTYYLDSLKSRFTISRDNSKNTLYLQMNSLKAEDTAVYYCARDHYLGNSYVFDLWGQGTTVTVSS VL: DIQMTQSPSSLSASVGDRVTITCKASEDIYNRLAWYQQKPGKAPRLIISGATSLETGVPSRFSGSGSGKDYTLTISSLQPEDFATYYCQQYWSTPWTFGGGTKVEIK | 
8 |  | 0.172 | 2.05 | 45.2 | 37.5 | 11.9 | aTM-7 (antibody, V domains shown) VH: EVQLVESGGGLVQPGGSLRLSCAASGFTFSDYYMAWVRQAPGKGLEWVSNINSDGSSTYYLDSLKSRFTISRDNSKNTLYLQMNSLKAEDTAVYYCARDHYMGNSYVFDTWGQGTTVTVSS VL: DIQMTQSPSSLSASVGDRVTITCKASEDIYNRLAWYQQKPGKAPRLIISGATSLETGVPSRFSGSGSGKDYTLTISSLQPEDFATYYCQQYWSTPWTFGGGTKVEIK | 
9 |  |  |  |  |  |  | chimeric antibody CH-1601 (antibody, human IgG4 S228P, kappa, V domains shown) VH: EVKLVESEGGLVQPGSSLKLSCTASGFTFSDYYMAWVRQVPEKGLEWVANINSDGSSTYYLDSLKSRFIISRDNAKNILYLQMSSLKSEDTATYYCARDHYHGNSYVFDYWGQGTTLTVSS VL: DIQMTQSSSSFSVSRGNRVTITCKASEDIYNRLAWYQQKPGNAPRLIISGATSLETGVPSRFSGSGSGKDYTLSITSLQTEDVGTYYCQQYWSTPWTFGGGTKLEIKR | Kd [10]: 2.27 nM; Kd [11]: 78.7 nM; EC50 [12]: 0.71 nM; binding result [13]: no binding; EC50 [14]: 42.6 nM
